Reference: patent US20220177596A1 (Bristol-Myers Squibb, published 2022)

Biological target: T1, human-CD40 monomer (human, UniProt P25942 21-193, limits assumed)
T1 construct: also called hCD40-monomer; human-CD40-monomer protein
Experiment: SPR 2 pt screen, Ab on protein A
Method: The VH sequences were formatted in the context of an IgG1.3f isotype. The Vκ sequences were formatted as a full light chain with a common CL sequence. All 55 combinations of these humanized HC and LC constructs, as well as the chimeric Y1238 molecule were expressed as 3 ml supernatants for binding analysis by SPR. Each of the 56 supernatants, as well as a purified Y1238-chimeric IgG1 antibody, was captured on a protein A sensor chip and tested for binding to two concentrations (i.e., 200 nM and 1000 nM) of hCD40-monomer using BIAcore™ SPR in a screening assay. All antibodies, except for those containing hz-HC3, captured at high levels (>300 RU) using a 100-fold dilution of the expression supernatant, indicating a high antibody titer in the supernatant except for the hz-HC3 samples. The kinetic data for the two concentrations of hCD40-monomer were fit to a 1:1 Langmuir model, to yield estimates of the kinetic and affinity values for these interactions, and for comparison of the different molecules. […] Also, for a given heavy chain, the antibodies with light chains hz-LC1 or hz-LC2 had higher CD40 affinity than those with hz-LC3, hz-LC4 or hz-LC5.

T1 sequence (P25942 21-193 limits assumed): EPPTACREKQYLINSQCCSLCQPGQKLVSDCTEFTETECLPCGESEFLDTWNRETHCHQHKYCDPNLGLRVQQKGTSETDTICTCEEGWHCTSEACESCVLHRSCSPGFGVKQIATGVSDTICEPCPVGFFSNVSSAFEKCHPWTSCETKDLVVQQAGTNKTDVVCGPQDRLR

Binder	Kd [nM]	koff [s⁻¹]	kon [M⁻¹ s⁻¹]
humanized Y1238 hz25 (hz-HC5 / hz-LC5), IgG1.3f (antibody, V domains shown, IgG1.3f heavy constant, common CL; expression supernatant; also called Sup 25) VH: QVQLVQSGAEVKKPGASVKVSCKASGYAFTNYLIEWVRQRPGQGLEWMGVINPGSGGTNYNEKFKGRVTMTADKSISTAYMELSRLRSDDTAVYYCARSQLGRRFDYWGQGTLVTVSS VL: DIQMTQSPSSLSASVGDRVTITCKASQDVRTGVAWYQQKPGQAPKLLIYSASYRNTGVPSRFSGSRSGTDFTFTISSLQPEDIAVYYCQQHYSPPYTFGGGTKVEIK	6.6	0.00028	43000
humanized Y1238 hz6 (hz-HC2 / hz-LC1), IgG1.3f (antibody, V domains shown, IgG1.3f heavy constant, common CL; expression supernatant; also called Sup 6) VH: QVQLVQSGAEVKKPGASVKVSCKASGYAFTNYLIEWVRQAPGQGLEWMGVINPGSGGTNYNEKFKGRVTMTADTSISTAYMELSRLRSDDTAVYYCARSQLGRRFDYWGQGTLVTVSS VL: DIQMTQSPSSLSASVGDRVTITCKASQDVRTGVAWYQQKPGKAPKLLIYSASYRNTGVPSRFSGSGSGTDFTFTISSLQPEDIATYYCQQHYSPPYTFGGGTKVEIK	2.7	0.00012	45000
humanized Y1238 hz17 (hz-HC4 / hz-LC2), IgG1.3f (antibody, V domains shown, IgG1.3f heavy constant, common CL; expression supernatant; also called Sup 17) VH: QVQLVQSGAEVKKPGASVKVSCKASGYAFTNYLIEWVRQAPGQGLEWMGVINPGSGGTNYNEKFKGRVTMTADKSISTAYMELSRLRSDDTAVYYCARSQLGRRFDYWGQGTLVTVSS VL: DIQMTQSPSSLSASVGDRVTITCKASQDVRTGVAWYQQKPGKAPKLLIYSASYRNTGVPSRFSGSRSGTDFTFTISSLQPEDIATYYCQQHYSPPYTFGGGTKVEIK	4.4	0.00018	42000
humanized Y1238 hz10 (hz-HC2 / hz-LC5), IgG1.3f (antibody, V domains shown, IgG1.3f heavy constant, common CL; expression supernatant; also called Sup 10) VH: QVQLVQSGAEVKKPGASVKVSCKASGYAFTNYLIEWVRQAPGQGLEWMGVINPGSGGTNYNEKFKGRVTMTADTSISTAYMELSRLRSDDTAVYYCARSQLGRRFDYWGQGTLVTVSS VL: DIQMTQSPSSLSASVGDRVTITCKASQDVRTGVAWYQQKPGQAPKLLIYSASYRNTGVPSRFSGSRSGTDFTFTISSLQPEDIAVYYCQQHYSPPYTFGGGTKVEIK	5.9	0.00027	45000
humanized Y1238 hz19 (hz-HC4 / hz-LC4), IgG1.3f (antibody, V domains shown, IgG1.3f heavy constant, common CL; expression supernatant; also called Sup 19) VH: QVQLVQSGAEVKKPGASVKVSCKASGYAFTNYLIEWVRQAPGQGLEWMGVINPGSGGTNYNEKFKGRVTMTADKSISTAYMELSRLRSDDTAVYYCARSQLGRRFDYWGQGTLVTVSS VL: DIQMTQSPSSLSASVGDRVTITCKASQDVRTGVAWYQQKPGQSPKLLIYSASYRNTGVPSRFSGSRSGTDFTFTISSLQAEDIAVYYCQQHYSPPYTFGGGTKVEIK	6.3	0.00028	45000
humanized Y1238 hz8 (hz-HC2 / hz-LC3), IgG1.3f (antibody, V domains shown, IgG1.3f heavy constant, common CL; expression supernatant; also called Sup 8) VH: QVQLVQSGAEVKKPGASVKVSCKASGYAFTNYLIEWVRQAPGQGLEWMGVINPGSGGTNYNEKFKGRVTMTADTSISTAYMELSRLRSDDTAVYYCARSQLGRRFDYWGQGTLVTVSS VL: DIQMTQSPSSLSASVGDRVTITCKASQDVRTGVAWYQQKPGQSPKLLIYSASYRNTGVPSRFSGSRSGTDFTFTISSLQPEDIAVYYCQQHYSPPYTFGGGTKVEIK	6.2	0.00029	46000
humanized Y1238 hz23 (hz-HC5 / hz-LC3), IgG1.3f (antibody, V domains shown, IgG1.3f heavy constant, common CL; expression supernatant; also called Sup 23) VH: QVQLVQSGAEVKKPGASVKVSCKASGYAFTNYLIEWVRQRPGQGLEWMGVINPGSGGTNYNEKFKGRVTMTADKSISTAYMELSRLRSDDTAVYYCARSQLGRRFDYWGQGTLVTVSS VL: DIQMTQSPSSLSASVGDRVTITCKASQDVRTGVAWYQQKPGQSPKLLIYSASYRNTGVPSRFSGSRSGTDFTFTISSLQPEDIAVYYCQQHYSPPYTFGGGTKVEIK	7.2	0.00031	43000
humanized Y1238 hz5 (hz-HC1 / hz-LC5), IgG1.3f (antibody, V domains shown, IgG1.3f heavy constant, common CL; expression supernatant; also called Sup 5) VH: QVQLVQSGAEVKKPGASVKVSCKASGYAFTNYLIEWVRQAPGQGLEWMGVINPGSGGTNYNEKFKGRVTMTRDTSISTAYMELSRLRSDDTAVYYCARSQLGRRFDYWGQGTLVTVSS VL: DIQMTQSPSSLSASVGDRVTITCKASQDVRTGVAWYQQKPGQAPKLLIYSASYRNTGVPSRFSGSRSGTDFTFTISSLQPEDIAVYYCQQHYSPPYTFGGGTKVEIK	11	0.0005	47000
humanized Y1238 hz4 (hz-HC1 / hz-LC4), IgG1.3f (antibody, V domains shown, IgG1.3f heavy constant, common CL; expression supernatant; also called Sup 4) VH: QVQLVQSGAEVKKPGASVKVSCKASGYAFTNYLIEWVRQAPGQGLEWMGVINPGSGGTNYNEKFKGRVTMTRDTSISTAYMELSRLRSDDTAVYYCARSQLGRRFDYWGQGTLVTVSS VL: DIQMTQSPSSLSASVGDRVTITCKASQDVRTGVAWYQQKPGQSPKLLIYSASYRNTGVPSRFSGSRSGTDFTFTISSLQAEDIAVYYCQQHYSPPYTFGGGTKVEIK	8.9	0.00042	48000
humanized Y1238 hz2 (hz-HC1 / hz-LC2), IgG1.3f (antibody, V domains shown, IgG1.3f heavy constant, common CL; expression supernatant; also called Sup 2) VH: QVQLVQSGAEVKKPGASVKVSCKASGYAFTNYLIEWVRQAPGQGLEWMGVINPGSGGTNYNEKFKGRVTMTRDTSISTAYMELSRLRSDDTAVYYCARSQLGRRFDYWGQGTLVTVSS VL: DIQMTQSPSSLSASVGDRVTITCKASQDVRTGVAWYQQKPGKAPKLLIYSASYRNTGVPSRFSGSRSGTDFTFTISSLQPEDIATYYCQQHYSPPYTFGGGTKVEIK	5.2	0.00023	45000
humanized Y1238 hz7 (hz-HC2 / hz-LC2), IgG1.3f (antibody, V domains shown, IgG1.3f heavy constant, common CL; expression supernatant; also called Sup 7) VH: QVQLVQSGAEVKKPGASVKVSCKASGYAFTNYLIEWVRQAPGQGLEWMGVINPGSGGTNYNEKFKGRVTMTADTSISTAYMELSRLRSDDTAVYYCARSQLGRRFDYWGQGTLVTVSS VL: DIQMTQSPSSLSASVGDRVTITCKASQDVRTGVAWYQQKPGKAPKLLIYSASYRNTGVPSRFSGSRSGTDFTFTISSLQPEDIATYYCQQHYSPPYTFGGGTKVEIK	2.7	0.00011	43000
humanized Y1238 hz18 (hz-HC4 / hz-LC3), IgG1.3f (antibody, V domains shown, IgG1.3f heavy constant, common CL; expression supernatant; also called Sup 18) VH: QVQLVQSGAEVKKPGASVKVSCKASGYAFTNYLIEWVRQAPGQGLEWMGVINPGSGGTNYNEKFKGRVTMTADKSISTAYMELSRLRSDDTAVYYCARSQLGRRFDYWGQGTLVTVSS VL: DIQMTQSPSSLSASVGDRVTITCKASQDVRTGVAWYQQKPGQSPKLLIYSASYRNTGVPSRFSGSRSGTDFTFTISSLQPEDIAVYYCQQHYSPPYTFGGGTKVEIK	7.6	0.00035	46000
humanized Y1238 hz16 (hz-HC4 / hz-LC1), IgG1.3f (antibody, V domains shown, IgG1.3f heavy constant, common CL; expression supernatant; also called Sup 16) VH: QVQLVQSGAEVKKPGASVKVSCKASGYAFTNYLIEWVRQAPGQGLEWMGVINPGSGGTNYNEKFKGRVTMTADKSISTAYMELSRLRSDDTAVYYCARSQLGRRFDYWGQGTLVTVSS VL: DIQMTQSPSSLSASVGDRVTITCKASQDVRTGVAWYQQKPGKAPKLLIYSASYRNTGVPSRFSGSGSGTDFTFTISSLQPEDIATYYCQQHYSPPYTFGGGTKVEIK	2.7	0.00012	45000
humanized Y1238 hz20 (hz-HC4 / hz-LC5), IgG1.3f (antibody, V domains shown, IgG1.3f heavy constant, common CL; expression supernatant; also called Sup 20) VH: QVQLVQSGAEVKKPGASVKVSCKASGYAFTNYLIEWVRQAPGQGLEWMGVINPGSGGTNYNEKFKGRVTMTADKSISTAYMELSRLRSDDTAVYYCARSQLGRRFDYWGQGTLVTVSS VL: DIQMTQSPSSLSASVGDRVTITCKASQDVRTGVAWYQQKPGQAPKLLIYSASYRNTGVPSRFSGSRSGTDFTFTISSLQPEDIAVYYCQQHYSPPYTFGGGTKVEIK	8.3	0.00037	45000
humanized Y1238 hz3 (hz-HC1 / hz-LC3), IgG1.3f (antibody, V domains shown, IgG1.3f heavy constant, common CL; expression supernatant; also called Sup 3) VH: QVQLVQSGAEVKKPGASVKVSCKASGYAFTNYLIEWVRQAPGQGLEWMGVINPGSGGTNYNEKFKGRVTMTRDTSISTAYMELSRLRSDDTAVYYCARSQLGRRFDYWGQGTLVTVSS VL: DIQMTQSPSSLSASVGDRVTITCKASQDVRTGVAWYQQKPGQSPKLLIYSASYRNTGVPSRFSGSRSGTDFTFTISSLQPEDIAVYYCQQHYSPPYTFGGGTKVEIK	10	0.00048	48000
humanized Y1238 hz22 (hz-HC5 / hz-LC2), IgG1.3f (antibody, V domains shown, IgG1.3f heavy constant, common CL; expression supernatant; also called Sup 22) VH: QVQLVQSGAEVKKPGASVKVSCKASGYAFTNYLIEWVRQRPGQGLEWMGVINPGSGGTNYNEKFKGRVTMTADKSISTAYMELSRLRSDDTAVYYCARSQLGRRFDYWGQGTLVTVSS VL: DIQMTQSPSSLSASVGDRVTITCKASQDVRTGVAWYQQKPGKAPKLLIYSASYRNTGVPSRFSGSRSGTDFTFTISSLQPEDIATYYCQQHYSPPYTFGGGTKVEIK	2.9	0.00012	40000
humanized Y1238 hz21 (hz-HC5 / hz-LC1), IgG1.3f (antibody, V domains shown, IgG1.3f heavy constant, common CL; expression supernatant; also called Sup 21) VH: QVQLVQSGAEVKKPGASVKVSCKASGYAFTNYLIEWVRQRPGQGLEWMGVINPGSGGTNYNEKFKGRVTMTADKSISTAYMELSRLRSDDTAVYYCARSQLGRRFDYWGQGTLVTVSS VL: DIQMTQSPSSLSASVGDRVTITCKASQDVRTGVAWYQQKPGKAPKLLIYSASYRNTGVPSRFSGSGSGTDFTFTISSLQPEDIATYYCQQHYSPPYTFGGGTKVEIK	3.5	0.00015	42000
humanized Y1238 hz9 (hz-HC2 / hz-LC4), IgG1.3f (antibody, V domains shown, IgG1.3f heavy constant, common CL; expression supernatant; also called Sup 9) VH: QVQLVQSGAEVKKPGASVKVSCKASGYAFTNYLIEWVRQAPGQGLEWMGVINPGSGGTNYNEKFKGRVTMTADTSISTAYMELSRLRSDDTAVYYCARSQLGRRFDYWGQGTLVTVSS VL: DIQMTQSPSSLSASVGDRVTITCKASQDVRTGVAWYQQKPGQSPKLLIYSASYRNTGVPSRFSGSRSGTDFTFTISSLQAEDIAVYYCQQHYSPPYTFGGGTKVEIK	6.6	0.00031	47000
